Measured values published in PMC2854499 (Nature, 2008).

Biological target: T1, MBP-tagged WSTF C-motif (208-345) (human, UniProt Q9UIG0 208-345)
T1 sequence (looked up): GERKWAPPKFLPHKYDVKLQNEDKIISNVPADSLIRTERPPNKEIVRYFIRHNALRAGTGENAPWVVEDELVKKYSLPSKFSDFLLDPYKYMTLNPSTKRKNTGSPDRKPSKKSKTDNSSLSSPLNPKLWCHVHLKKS
Assay: pull-down + SEC

stoichiometry N: 1
B1: GST-tagged WSTF N-motif (1-205) (domain or fragment, human, UniProt Q9UIG0 1-205, looked up)
chain: MAPLLGRKPFPLVKPLPGEEPLFTIPHTQEAFRTREEYEARLERYSERIWTCKSTGSSQLTHKEAWEEEQEVAELLKEEFPAWYEKLVLEMVHHNTASLEKLVDTAWLEIMTKYAVGEECDFEVGKEKMLKVKIVKIHPLEKVDEEATEKKSDGACDSPSSDKENSSQIAQDHQKKETVVKEDEGRRESINDRARRSPRKLPTSL
